Consider 6 molecules from US20230312724A1 (KADMON, published 2023).

As a reminder, the Kd is the equilibrium constant for the complex coming apart. The EC50 (read off the curve) is the concentration that produces a half-maximal response. A higher EC50 (read off the curve) goes with weaker potency.

Where two headings read alike, the source gives them in different places.

For assay [1], the target named is T1, human B7-H4-Fc (human).
T1 construct: also called hB7-H4-Fc; hB7-H4 Fc
The assay is described as follows: SPR (Biacore). How it is done:
(§1) Surface plasmon resonance experiments were performed using a Biacore T200 instrument equipped with CM5 sensor chips. The system was equilibrated in running buffer HBS-EP pH 7.4. The ligands were immobilized using amine-coupling chemistry. The surfaces of flow cells one through four were activated for 5 min using an amine coupling kit at a flow rate of […]. The ligands (human B7-H4-Fc, human B7-H4-hism and mouse B7-H4-Fc; at a concentration of 5 μg/ml in 10 mM sodium acetate, pH 5.0) were immobilized at a density of 50-100 RU on flow cell 2, 3, 4 respectively. Flow cell 1 was left blank to serve as a reference surface. All flow cell surfaces were blocked with a 5 min injection of 1 M ethanolamine, pH 8.0. To collect kinetic binding data, the respective analyte (diluted in 1×HBS-EP buffer, pH 7.4) was injected over the four flow cells at concentrations of 100 nM to 0.1 nM at a flow rate of […] and at a temperature of 25° C. The protein complex was allowed to associate and dissociate for 180 seconds and 1000 or 1200 seconds, respectively. The surfaces were regenerated with a 30 second injection of 1.5 M NaCl/0.05 M NaOH. The data were fit to a simple 1:1 interaction model using the Langmuir fit option available within the Biaevaluaton software
(§2) The kinetics for binding of the different antibodies to their targets were examined using Biacore analysis.
For orientation: In SPR one partner is held on a chip, and binding of the other changes the refractive index at the surface.

Another assay concerns the target T2, human B7-H4-his (human, UniProt Q7Z7D3 25-259).
T2 construct: also called hB7-H4-his; hB7-H4 his; not shown: his tag
T2 sequence: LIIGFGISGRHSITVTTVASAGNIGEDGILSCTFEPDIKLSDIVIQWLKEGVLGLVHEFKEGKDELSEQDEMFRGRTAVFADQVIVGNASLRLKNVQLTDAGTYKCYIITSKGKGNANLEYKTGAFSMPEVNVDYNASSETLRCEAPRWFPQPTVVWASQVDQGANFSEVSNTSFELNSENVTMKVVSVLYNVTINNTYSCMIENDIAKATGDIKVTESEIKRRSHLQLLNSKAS
The assay is described as follows: SPR (Biacore). As for the experimental part:
as §1, §2

The target in assay [2] is T3, mouse B7-H4-his (mouse, UniProt Q7TSP5 25-257).
T3 construct: also called mB7-H4-his; mB7-H4-His; not shown: his tag
T3 sequence: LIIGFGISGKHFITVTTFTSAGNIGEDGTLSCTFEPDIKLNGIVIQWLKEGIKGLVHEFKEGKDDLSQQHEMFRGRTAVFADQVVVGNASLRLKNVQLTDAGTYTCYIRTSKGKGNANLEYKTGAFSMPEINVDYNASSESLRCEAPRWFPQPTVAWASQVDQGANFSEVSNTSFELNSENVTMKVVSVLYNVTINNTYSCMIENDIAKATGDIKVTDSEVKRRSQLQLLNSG
The assay is described as follows: SPR (Biacore). How it is done:
as §1, §2

The target in assay [3] is T4, mouse B7-H4-Fc (mouse; human).
T4 construct: also called mB7-H4-Fc; mB7-H4-hFc
T4 sequence (chain, as listed by the source): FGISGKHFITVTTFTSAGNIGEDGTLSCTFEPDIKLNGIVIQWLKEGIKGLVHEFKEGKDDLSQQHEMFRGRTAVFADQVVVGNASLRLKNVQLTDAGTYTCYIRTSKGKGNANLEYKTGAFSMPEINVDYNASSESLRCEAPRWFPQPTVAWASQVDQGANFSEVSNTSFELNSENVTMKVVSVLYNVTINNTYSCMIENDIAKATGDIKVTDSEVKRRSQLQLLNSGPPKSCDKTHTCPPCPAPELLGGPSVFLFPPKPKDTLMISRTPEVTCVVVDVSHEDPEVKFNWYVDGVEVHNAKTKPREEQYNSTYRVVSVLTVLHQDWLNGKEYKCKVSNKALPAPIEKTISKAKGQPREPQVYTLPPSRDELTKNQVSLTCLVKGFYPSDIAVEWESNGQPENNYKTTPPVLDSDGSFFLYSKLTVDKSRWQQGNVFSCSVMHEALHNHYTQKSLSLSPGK
The assay is described as follows: ELISA, coated mB7-H4-Fc. As for the experimental part: (§3) ELISA experiments were performed to determine binding to hB7-H4-Fc (FIG. 3A), hB7-H4-his (FIG. 3B), mB7-H4-Fc (FIG. 3C), and hB7-H4 IgV domain (FIG. 3D). Flow cytometry experiments were performed to determine binding to CHO cells expressing hB7-H4 (FIG. 3E) or mB7-H4 (FIG. 3F).
(§4) About 1-2 μg/ml of human or mouse B7-H4-Fc (or his-tagged) was immobilized on ELISA plates (Immuno 2HB, Thermo scientific, cat #3455) at 4° C. overnight. After blocking the plates with 3% PBS+milk, serial diluted antibodies were added to the blocked plates and incubated at RT for 1-1.5 h. After washing the plates with PBS-T (0.05%), horse radish peroxidase (HRP)-conjugated antibody targeting the hFab was added to the plate. Signals were developed by adding 3,3′,5,5′-Tetramethylbenzidine (TMB (followed 1N of H₂SO₄ to stop the reaction. The OD at 450 nm was read by ELISA plate reader (Infinite M1000 from TECAN). GraphPad from Prism was used to plot OD450 vs. antibody concentration curve and to calculate the EC50 values.
For orientation: In an ELISA, binding on a coated surface is turned into a signal by an enzyme label.

Assay [4] concerns the target T5, mB7-H4 (soluble mouse B7-H4, construct not named) (mouse, UniProt Q7TSP5 25-257, limits assumed).
T5 sequence: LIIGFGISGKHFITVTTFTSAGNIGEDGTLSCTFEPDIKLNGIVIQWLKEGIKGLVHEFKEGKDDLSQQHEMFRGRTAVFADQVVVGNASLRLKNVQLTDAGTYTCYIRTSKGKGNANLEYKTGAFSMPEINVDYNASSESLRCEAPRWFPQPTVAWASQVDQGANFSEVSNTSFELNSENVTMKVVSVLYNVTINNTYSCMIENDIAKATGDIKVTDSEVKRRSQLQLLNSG
The assay is described as follows: summary of ELISA and flow cytometry.

Assay [5] concerns the target T6, mouse B7-H4 expressed on cells (mouse, UniProt Q7TSP5 25-257).
T6 construct: also called cellular mB7-H4; mB7-H4/CT26
T6 sequence: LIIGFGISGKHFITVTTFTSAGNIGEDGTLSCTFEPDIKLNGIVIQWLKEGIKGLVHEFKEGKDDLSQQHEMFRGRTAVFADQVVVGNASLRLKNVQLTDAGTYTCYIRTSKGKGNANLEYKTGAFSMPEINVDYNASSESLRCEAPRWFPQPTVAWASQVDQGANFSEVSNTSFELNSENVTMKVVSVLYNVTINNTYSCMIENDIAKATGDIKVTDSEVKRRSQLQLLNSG
The assay is described as follows: flow cytometry, CHO cells expressing mB7-H4. As for the experimental part: as §3
Cells were harvested, washed once, and then re-suspended to the concentration of 1×10⁶ cells/ml in ice cold FACS Buffer. 25 μl of cell suspension was added to each well of a 96-well round-bottom microliter plate. Serially diluted antibodies or fusion proteins were added to each well and incubated for 1 hour at 4° C. Cells were washed three times by centrifugation at 1500 rpm for 5 minutes, and then stained with secondary antibody (1:200 dilution) for 30 min at 4° C. in the dark. Cells were washed once, re-suspended in 100 μl PBS buffer and then analyzed using Guava Flow Cytometry EasyCyte system.
(In general: A flow cytometer gives signals particle by particle.)

Assay [6] concerns the target T1, human B7-H4-Fc. The assay is described as follows: ELISA, coated hB7-H4-Fc. As for the experimental part: (§5) ELISA experiments were performed to determine binding to hB7-H4-Fc (FIG. 4A), hB7-H4-his (FIG. 4B), hB7-H4 IgV domain (FIG. 4C), and mB7-H4 IgV domain (FIG. 4D). Flow cytrometry experiments were performed to determine binding to CHO cells expressing hB7-H4 (FIG. 4E) or mB7-H4 (FIG. 4F). […] A cross-reactive IgV binding antibody was used as a control.
as §4

In assay [7] the target is T7, IgV domain of mouse B7-H4-Fc (mouse; human).
T7 construct: also called mB7-H4 IgV domain
T7 sequence (chain, as listed by the source): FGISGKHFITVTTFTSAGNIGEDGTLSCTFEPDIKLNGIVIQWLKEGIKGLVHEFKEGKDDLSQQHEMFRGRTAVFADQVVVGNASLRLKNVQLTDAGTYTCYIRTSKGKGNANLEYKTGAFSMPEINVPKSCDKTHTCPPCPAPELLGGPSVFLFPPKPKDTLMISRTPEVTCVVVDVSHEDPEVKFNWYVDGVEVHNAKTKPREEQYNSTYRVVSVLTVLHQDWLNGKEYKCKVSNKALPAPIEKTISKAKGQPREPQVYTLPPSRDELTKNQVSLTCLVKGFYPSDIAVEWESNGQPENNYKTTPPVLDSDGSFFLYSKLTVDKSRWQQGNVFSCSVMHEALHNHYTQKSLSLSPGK
The assay is described as follows: ELISA, coated mB7-H4 IgV domain. How it is done:
as §5, §4

The target in assay [8] is T4, mouse B7-H4-Fc. The assay is described as follows: ELISA, coated mB7-H4-Fc (title on the sheet: Binding to mB7H4-Fc). As for the experimental part:
as §5, §4

The target of assay [9] is T4, mouse B7-H4-Fc. The assay is described as follows: SPR (Biacore).
Assay [10] concerns the target T3, mouse B7-H4-his. The assay is described as follows: SPR (Biacore). This is another data set of the same source.
For assay [11], the target named is T1, human B7-H4-Fc. The assay is described as follows: ELISA, coated hB7-H4-Fc. As for the experimental part:
as §4
This is another data set of the same source.

Assay [12] has as its target T4, mouse B7-H4-Fc. The assay is described as follows: ELISA, coated mB7-H4-Fc. How it is done: as §4
The source holds these as a separate data set.

Assay [13] has as its target T8, IgV domain of human B7-H4-Fc (human).
T8 construct: also called hB7-H4 IgV domain
The assay is described as follows: ELISA, coated hB7-H4 IgV domain. As for the experimental part:
as §4

The target in assay [14] is T7, IgV domain of mouse B7-H4-Fc. The assay is described as follows: ELISA, coated mB7-H4 IgV domain. How it is done: as §4
This is another data set of the same source.

T1 sequence (chain, as listed by the source): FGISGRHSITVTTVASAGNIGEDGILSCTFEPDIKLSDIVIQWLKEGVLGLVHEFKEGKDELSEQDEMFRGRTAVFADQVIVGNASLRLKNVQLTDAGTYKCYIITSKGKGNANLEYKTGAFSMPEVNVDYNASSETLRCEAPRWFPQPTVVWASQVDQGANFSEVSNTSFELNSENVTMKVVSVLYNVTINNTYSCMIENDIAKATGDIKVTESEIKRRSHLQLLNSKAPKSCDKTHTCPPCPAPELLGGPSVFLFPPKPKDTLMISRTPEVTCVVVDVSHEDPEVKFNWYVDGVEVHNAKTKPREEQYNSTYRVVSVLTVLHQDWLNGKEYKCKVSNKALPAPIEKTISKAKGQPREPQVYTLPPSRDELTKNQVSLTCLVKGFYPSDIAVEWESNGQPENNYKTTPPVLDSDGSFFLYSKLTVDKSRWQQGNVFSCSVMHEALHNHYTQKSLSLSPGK
T8 sequence (chain, as listed by the source): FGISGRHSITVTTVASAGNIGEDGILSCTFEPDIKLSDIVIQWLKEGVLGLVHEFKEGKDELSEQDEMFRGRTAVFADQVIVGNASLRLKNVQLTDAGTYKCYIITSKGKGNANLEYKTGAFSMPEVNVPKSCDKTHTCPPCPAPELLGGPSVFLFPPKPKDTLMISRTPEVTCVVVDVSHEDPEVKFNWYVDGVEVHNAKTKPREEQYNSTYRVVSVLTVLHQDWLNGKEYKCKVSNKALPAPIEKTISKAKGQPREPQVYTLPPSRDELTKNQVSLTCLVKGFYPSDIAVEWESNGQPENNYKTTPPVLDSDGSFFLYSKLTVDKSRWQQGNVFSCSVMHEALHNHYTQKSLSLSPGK

B1: 1F11/1F11 (antibody, human IgG1, V domains shown)
VH: QVQLVQSGAEVKKPGSSVKVSCKASGDTFTTYQIHWVRQAPGQGLEWMGGIMPIFGTTKYAQNFQGRVTITADESTSTAYMELSSLRSEDTAVYYCARRNYGMDVWGQGTTVTVSS
VL: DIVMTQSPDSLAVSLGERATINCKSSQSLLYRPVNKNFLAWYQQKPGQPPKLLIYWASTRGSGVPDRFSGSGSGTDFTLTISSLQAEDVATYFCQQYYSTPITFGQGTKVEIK
As for B1, the Kd is 1.66 nM in the assay with human B7-H4-Fc [1] and 1.11 nM in the assay with human B7-H4-his. For the same molecule, the binding result was “no binding” in the assay with mouse B7-H4-his [2], “no binding (tested: axis value -8 (log scale labelled nM))” with mouse B7-H4-Fc [3], “no binding” in [4] and “no binding (tested: axis value -7 (log scale labelled nM))” in [5].

B2: 6C3/6C3 (antibody, human IgG1, V domains shown)
VH: EVQLLESGGGLVQPGGSLRLSCAASGFTFSSYAMHWVRQAPGKGLEWVASISGTGFTTRYADSVKGRFTISRDNSKNTLYLQMNSLRAEDTAVYYCARGGWFRDTPVDYWGQGTLVTVSS
VL: DIVMTQSPLSLPVTPGEPASISCRSSQSLLHSNGYNYLDWYLQKPGQSPQLLIYGASSLRSGVPDRFSGSGSGTDFTLKISRVEAZDVGVYYCMQASHWPPTFGQGTRLEIK
notes: The VL holds a letter Z
Consider B2, for which the dissociation constant (Kd) with human B7-H4-Fc [1] amounted to 10.9 nM; with human B7-H4-his, 6.3 nM. The binding result with mouse B7-H4-his [2] was “no binding”; in assay [4] it was “no binding”; in [7], “no binding”; in assay [5], “no binding (tested: axis value -7 (log scale labelled nM))”; with mouse B7-H4-Fc [8], “no binding (tested: log 0.3 ug/ml (about 2 ug/ml))”. For the same molecule, the “EC50 (read off the curve)” value with human B7-H4-Fc [6] was about 0.03 µg/mL.

B3: 5F4/5F4 (antibody, human IgG1, V domains shown)
VH: EVQLLESGGGLVKPGGSLRLSCAASGFTFSSYAMHWVRQAPGKGLEWVSAIGGSGRTTYYADSVKGRFTISRDDSKNTLYLQMNSLKTEDTAVYYCARERGYSYGQIDYWGQGTLVTVSS
VL: DIVMTQSPLSLPVTPGEPASISCRSSQSLLHSNGYNYLDWYLQKPGQSPQLLIYAASSLQSGVPDRFSGSGSGTDFTLKISRVEAEDVGVYYCMQGAHWPLTFGQGTKVEIK
As to B3, the Kd amounted to 15 nM with human B7-H4-Fc [1], 16.6 nM with human B7-H4-his, 11.9 nM with mouse B7-H4-Fc [9] and 15 nM with mouse B7-H4-his [10]. The “EC50 (read off the curve)” value in the assay with human B7-H4-Fc [11] and in the assay with mouse B7-H4-Fc [12] was about 0.1 nM throughout. The binding result in assay [13] and in [14] was “no binding (tested: 20 nM)” throughout.

B4: 3D1/3D1 (antibody, human IgG1, V domains shown)
VH: QVQLVQSGAEVKKPGSSVKVSCKASGYSFISYAITWVRQAPGQGLEWIGGINPIFGTAKYAQKFQGRVTITADESTSTAYMELSSLRSEDTAVYYCAKGQALIQHWGQGTLVTVSS
VL: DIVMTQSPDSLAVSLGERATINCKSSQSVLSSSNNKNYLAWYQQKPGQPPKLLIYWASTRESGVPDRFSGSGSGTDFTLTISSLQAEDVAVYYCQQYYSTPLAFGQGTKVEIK
For the molecule B4, the results for the Kd with human B7-H4-Fc [1] and with human B7-H4-his were 2.23 nM and 28.5 nM, respectively. Besides, the binding result is given as “no binding” in the assay with mouse B7-H4-his [2], “no binding” in assay [4], “no binding” in [7] and “no binding (tested: log 0.3 ug/ml (about 2 ug/ml))” in the assay with mouse B7-H4-Fc [8]. In addition, the “EC50 (read off the curve)” value with human B7-H4-Fc [6] is about 0.009 µg/mL.

B5: 5E4/5E4 (antibody, human IgG1, V domains shown)
VH: QVQLVQSGAEVKKPGASVKVSCKASGYTFTSYDINWVRQAPGQGLEWMGWMNPNSGNTGYAQKFQGRVTMTRDTSTSTVYMELSSLRSEDTAVYYCARGELWFGEFDYYYYYGMDVWGQGTTVTVSS
VL: DIQMTQSPSSLSASVGDRVTITCRASQSISSYLNWYQQKPGKAPKLLIYGASSLQSGVPSRFSGSGSGTDFTLTISSLQPEDFATYYCQQADRIPFTFGRGTKVEIK
As for B5, the Kd stood at 11.7 nM with human B7-H4-Fc [1], 10 nM with human B7-H4-his, 14.1 nM in the assay with mouse B7-H4-Fc [9] and 9.09 nM with mouse B7-H4-his [10]. The “EC50 (read off the curve)” value in the assay with human B7-H4-Fc [11] and in the assay with mouse B7-H4-Fc [12] was about 0.1 nM throughout. For the same molecule, the binding result in assay [13] and in assay [14] was “no binding (tested: 20 nM)” in each case.

B6: 1A12/1A12 (antibody, human IgG1, V domains shown)
VH: EVQLLESGGGLVKPGGSLRLSCAASGFTFSSYAMHWVRQAPGKGLEWVAVISYDGSNKYYADSVKGRFTISRDDSKNTLYLQMNSLKTEDTAVYYCARHGWDAFDIWGQGTLVTVSS
VL: DIQMTQSPSSLSASVGDRVTITCRASQDISNRLNWYQQKPGKAPKLLIYLASSLQGGVPSRFSGSGSGTDFTLTISSLQPEDFATYYCQQAISFPLTFGGGTKVEIK
With B6, the Kd turned out to be 3.57 nM with human B7-H4-Fc [1] and 2.47 nM with human B7-H4-his. In addition, the binding result with mouse B7-H4-his [2] is “no binding”; with mouse B7-H4-Fc [3], “no binding (tested: axis value -8 (log scale labelled nM))”; in [4], “no binding”; in assay [5] it was “no binding (tested: axis value -7 (log scale labelled nM))”.
